Test system: Escherichia coli TOP10
Experiment: shrunken log2 fold change of peptide-encoding DNA abundance (4.5 h post-induction vs induction); higher = less antimicrobial activity (less host growth inhibition)
Conditions: time post-induction: 4.5 h; library: site-saturation at positions 5, 18, 19, 20
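Also: peptides expressed intracellularly from a pBAD plasmid library in pooled LB shake-flask culture, induced with 0.3% L-arabinose, DNA abundance read by NGS, three biological replicates, DESeq2 with apeglm shrinkage.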

Sequence | shrunken log2 fold change
RRIRQRPPRLPRPRPRPANGPRP | 0.184
RRIRNRPPRLPRPRPRPVCNPRP | -0.222
RRIRNRPPRLPRPRPRPDEQPRP | -0.0726
RRIRRRPPRLPRPRPRPCWMPRP | 0.415
RRIRNRPPRLPRPRPRPNYKPRP | -0.827
RRIRRRPPRLPRPRPRPTIFPRP | 0.149
RRIRSRPPRLPRPRPRPMLHPRP | -0.424
RRIRKRPPRLPRPRPRPHSFPRP | -0.0644
RRIRCRPPRLPRPRPRPANAPRP | -0.0408
RRIRARPPRLPRPRPRPFTCPRP | 0.0835
RRIRGRPPRLPRPRPRPYNHPRP | -0.983
RRIRARPPRLPRPRPRPPWQPRP | 0.675
RRIRGRPPRLPRPRPRPQFLPRP | -0.0259
RRIRGRPPRLPRPRPRPNTKPRP | -0.066
RRIRERPPRLPRPRPRPPRCPRP | -0.0309
RRIRWRPPRLPRPRPRPDLSPRP | 0.000407
RRIRPRPPRLPRPRPRPFVVPRP | -0.233
RRIRFRPPRLPRPRPRPTTRPRP | 0.177
RRIRVRPPRLPRPRPRPSPHPRP | -0.571
RRIRERPPRLPRPRPRPNYDPRP | -0.873
RRIRTRPPRLPRPRPRPPKKPRP | 0.0946
RRIRARPPRLPRPRPRPDTEPRP | 0.00829
RRIRVRPPRLPRPRPRPRRMPRP | 0.422
RRIRSRPPRLPRPRPRPCKRPRP | -0.326
RRIRARPPRLPRPRPRPKPKPRP | 0.936

Sequence | shrunken log2 fold change
RRIRQRPPRLPRPRPRPIFPPRP | 0.122
RRIRHRPPRLPRPRPRPQPWPRP | 0.0549
RRIRNRPPRLPRPRPRPLFCPRP | -0.495
RRIRDRPPRLPRPRPRPYFNPRP | -0.849
RRIRMRPPRLPRPRPRPCSHPRP | -0.167
RRIRHRPPRLPRPRPRPDILPRP | -0.0904
RRIRGRPPRLPRPRPRPVDFPRP | 0.408
RRIRCRPPRLPRPRPRPYEKPRP | -0.0213
RRIRYRPPRLPRPRPRPWCLPRP | -0.634
RRIRVRPPRLPRPRPRPPCGPRP | 0.297
RRIRMRPPRLPRPRPRPEMMPRP | 0.316
RRIRRRPPRLPRPRPRPKFMPRP | 0.122
RRIRHRPPRLPRPRPRPGWHPRP | 0.208
RRIRNRPPRLPRPRPRPHQSPRP | -0.104
RRIRFRPPRLPRPRPRPLMWPRP | 0.0935
RRIRCRPPRLPRPRPRPIMPPRP | -0.11
RRIRARPPRLPRPRPRPQCKPRP | -0.077
RRIRERPPRLPRPRPRPYCEPRP | -0.0402
RRIRFRPPRLPRPRPRPESYPRP | -0.0666
RRIRPRPPRLPRPRPRPTGYPRP | -0.151
RRIRMRPPRLPRPRPRPGGAPRP | 1.17
RRIRSRPPRLPRPRPRPDNSPRP | -0.13
RRIRKRPPRLPRPRPRPEKSPRP | 0.0144
RRIRARPPRLPRPRPRPHELPRP | 0.0601
RRIRGRPPRLPRPRPRPPVSPRP | 0.604

Sequence | shrunken log2 fold change
RRIRDRPPRLPRPRPRPWNFPRP | 0.0173
RRIRHRPPRLPRPRPRPDNHPRP | -0.323
RRIRLRPPRLPRPRPRPEIMPRP | -0.00809
RRIRGRPPRLPRPRPRPSPAPRP | 0.901
RRIRTRPPRLPRPRPRPANWPRP | 0.0703
RRIRNRPPRLPRPRPRPVAAPRP | 0.359
RRIRPRPPRLPRPRPRPRISPRP | -0.145
RRIRFRPPRLPRPRPRPFTIPRP | -0.313
RRIRDRPPRLPRPRPRPTVKPRP | -0.043
RRIRYRPPRLPRPRPRPWAGPRP | -0.53
RRIRARPPRLPRPRPRPPIAPRP | 0.534
RRIRHRPPRLPRPRPRPANCPRP | -0.246
RRIRTRPPRLPRPRPRPVEYPRP | -0.122
RRIRCRPPRLPRPRPRPWKQPRP | -0.181
RRIRLRPPRLPRPRPRPWLLPRP | -0.172
RRIRCRPPRLPRPRPRPTREPRP | 0.684
RRIRGRPPRLPRPRPRPTYMPRP | 0.0228
RRIRWRPPRLPRPRPRPGPQPRP | 0.938
RRIRFRPPRLPRPRPRPDAGPRP | 0.121
RRIRGRPPRLPRPRPRPVQGPRP | 0.301
RRIRGRPPRLPRPRPRPTFCPRP | 0.46
RRIRNRPPRLPRPRPRPIALPRP | -0.0133
RRIRGRPPRLPRPRPRPAVMPRP | 0.946
RRIRERPPRLPRPRPRPTLVPRP | -0.0681
RRIRNRPPRLPRPRPRPYMTPRP | -0.509

Sequence | shrunken log2 fold change
RRIRGRPPRLPRPRPRPYGRPRP | 0.047
RRIRTRPPRLPRPRPRPMNSPRP | -0.191
RRIRNRPPRLPRPRPRPIENPRP | 0.0211
RRIRNRPPRLPRPRPRPTSNPRP | -0.615
RRIRVRPPRLPRPRPRPHVFPRP | -0.0624
RRIRLRPPRLPRPRPRPSFKPRP | -0.572
RRIRFRPPRLPRPRPRPIWKPRP | 0.248
RRIRCRPPRLPRPRPRPRYAPRP | -0.229
RRIRLRPPRLPRPRPRPHYHPRP | -1.26
RRIRNRPPRLPRPRPRPNMHPRP | -0.433
RRIRDRPPRLPRPRPRPKWIPRP | -0.0438
RRIRGRPPRLPRPRPRPRAVPRP | 1
RRIRLRPPRLPRPRPRPKWRPRP | 0.39
RRIRIRPPRLPRPRPRPSTNPRP | -0.573
RRIRNRPPRLPRPRPRPKQHPRP | -0.253
RRIRARPPRLPRPRPRPGPPPRP | 0.736
RRIRPRPPRLPRPRPRPVVVPRP | -0.0997
RRIRDRPPRLPRPRPRPARDPRP | 0.724
RRIRWRPPRLPRPRPRPSQTPRP | 0.657
RRIRRRPPRLPRPRPRPDGIPRP | 0.282
RRIRWRPPRLPRPRPRPFMAPRP | -0.121
RRIRTRPPRLPRPRPRPRPLPRP | 0.295
RRIRFRPPRLPRPRPRPTRCPRP | 0.299
RRIRMRPPRLPRPRPRPGLIPRP | 0.133
RRIRYRPPRLPRPRPRPTYHPRP | -0.663

Sequence | shrunken log2 fold change
RRIRQRPPRLPRPRPRPDFWPRP | 0.0103
RRIRKRPPRLPRPRPRPYLQPRP | -0.599
RRIRSRPPRLPRPRPRPCMYPRP | -0.0328
RRIRARPPRLPRPRPRPITTPRP | 0.1
RRIRKRPPRLPRPRPRPYRPPRP | 0.0318
RRIRGRPPRLPRPRPRPCAWPRP | 0.167
RRIRMRPPRLPRPRPRPMSWPRP | 0.132
RRIRIRPPRLPRPRPRPFAKPRP | -0.295
RRIRMRPPRLPRPRPRPQFDPRP | -0.0694
RRIRRRPPRLPRPRPRPGPCPRP | 0.0678
RRIRARPPRLPRPRPRPLPHPRP | 0.209
RRIRERPPRLPRPRPRPNFWPRP | 1.9
RRIRKRPPRLPRPRPRPQCCPRP | -0.101
RRIRWRPPRLPRPRPRPNVLPRP | -0.0626
RRIRGRPPRLPRPRPRPRSMPRP | 0.666
RRIRWRPPRLPRPRPRPLFPPRP | 0.0582
RRIRPRPPRLPRPRPRPKWWPRP | 0.235
RRIRNRPPRLPRPRPRPMGYPRP | -0.00459
RRIRGRPPRLPRPRPRPDLWPRP | 1.79
RRIRARPPRLPRPRPRPVDEPRP | 0.33
RRIRFRPPRLPRPRPRPVANPRP | -0.1
RRIRARPPRLPRPRPRPGVFPRP | 0.502
RRIRHRPPRLPRPRPRPIEPPRP | -0.133
RRIRYRPPRLPRPRPRPPGRPRP | 0.643
RRIRGRPPRLPRPRPRPAFLPRP | 0.367

Source: the supplement of paper PMC9112550, “Optimization of the antimicrobial peptide Bac7 by deep mutational scanning” (BMC Biology, 2022)
